US20220073649A1 (MERUS N V, published 2022)

Assays:
human CXCR4 [1] = target: T1, human CXCR4 (human, UniProt P61073 1-352); assay: flow cytometry on human CXCR4
T1 construct: whole, on cells; Tested by flow cytometry; also called human C-X-C Motif Chemokine Receptor 4
Excerpt: (§1) Fab phage libraries were panned on mouse CXCR4 lipoparticles. Clones were screened by lipoparticle ELISA. Binders were sequenced and grouped into families based on CDR3 homology. Fab from three VHCDR3 families were validated by flow cytometry using HEK293 cells expressing natively folded mouse CXCR4. These families were subsequently tested for binding to human CXCR4 by flow cytometry. The positive clones were recloned into IgG format according to standard methods. Three VHCDR3 families were identified that are crossreactive with human and mouse CXCR4. The amino acid sequences of the heavy chain variable region of the mouse and human CXCR4 binding antibodies are set forth in SEQ Nos: 31, 32 and 33.

[2] = target: T2, mouse CXCR4 (wildtype full length) (mouse, UniProt P70658 1-359); assay: flow cytometry, Fab on HEK293 cells expressing natively folded mouse CXCR4
T2 construct: Natively folded mouse CXCR4 expressed on HEK293 cells for flow cytometry
Excerpt: as §1

human CXCR4 [3] = target: T1, human CXCR4; assay: figure legend (flow cytometry of Example 10)
Excerpt: as §1

[4] = target: T2, mouse CXCR4 (wildtype full length); assay: figure legend (flow cytometry of Example 10)
Excerpt: as §1

T2 sequence (P70658 whole entry): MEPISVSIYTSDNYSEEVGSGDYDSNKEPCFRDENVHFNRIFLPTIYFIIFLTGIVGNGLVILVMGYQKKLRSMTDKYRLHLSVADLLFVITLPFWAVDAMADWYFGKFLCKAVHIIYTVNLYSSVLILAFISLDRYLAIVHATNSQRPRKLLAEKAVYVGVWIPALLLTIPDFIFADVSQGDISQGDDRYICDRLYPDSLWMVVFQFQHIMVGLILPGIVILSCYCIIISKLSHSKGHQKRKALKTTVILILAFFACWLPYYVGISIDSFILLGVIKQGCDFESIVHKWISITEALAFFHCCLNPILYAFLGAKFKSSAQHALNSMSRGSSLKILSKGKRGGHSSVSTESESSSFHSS
T1 sequence (P61073 whole entry): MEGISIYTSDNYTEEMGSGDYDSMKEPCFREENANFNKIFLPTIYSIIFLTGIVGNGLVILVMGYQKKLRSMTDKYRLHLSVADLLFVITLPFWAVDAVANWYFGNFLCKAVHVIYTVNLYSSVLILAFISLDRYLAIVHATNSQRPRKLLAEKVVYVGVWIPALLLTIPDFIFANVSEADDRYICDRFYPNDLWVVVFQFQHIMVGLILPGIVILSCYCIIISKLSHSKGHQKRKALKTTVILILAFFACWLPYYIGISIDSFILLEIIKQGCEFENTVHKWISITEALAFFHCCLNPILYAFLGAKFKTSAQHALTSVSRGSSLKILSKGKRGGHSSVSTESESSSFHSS

Row | Binder | binding result (human CXCR4 [1]) | binding result [2] | binding result (human CXCR4 [3]) | binding result [4]
1 | CXCR4-1 (first chimeric Fab comprising a chicken VH paired with a human VL that binds to mouse and human CXCR4) (Fab, V domains shown, Positive clones were later recloned into IgG format; also called chicken VH-human VL Fab) VH: AVTLDESGGGLQTPGGALSLVCKASGFTFSSYRGMHWVRQAPGKGLEWVAGIYSSGSSTAYGAAVKGRATISRDDGQSTVRLQLNNLRAEDTGTYYCAKDAGSCWYGRRSGFNCDPYGGNIDAWGHGTEVIVSS VL: not shown | binds | binds | – | –
2 | CXCR4-2 (second chimeric Fab comprising a chicken VH paired with a human VL that binds to mouse and human CXCR4) (Fab, V domains shown, Positive clones were later recloned into IgG format; also called chicken VH-human VL Fab) VH: AVTLDESGGGLQTPGGALSLVCKASGFSFSSYDMSWVRQAPGKGLEWVAGIYSIGRDAGYGAAVKGRATISRDNGQSTVRLQLNNLRAEDTGTYYCAKESGSACRYAARHGYICAGYLGSIDAWGHGTEVIVSS VL: not shown | – | binds | binds | –
3 | CXCR4-3 (third chimeric Fab comprising a chicken VH paired with a human VL that binds to mouse and human CXCR4) (Fab, V domains shown, Positive clones were later recloned into IgG format; also called chicken VH-human VL Fab) VH: AVTLDESGGGLQTPGGALSLVCKASGFSIGSYGMGWVRQAPGKGLEFVAGISTIGGVTWYGAAVKGRAIISRDNGQSTVRLQLNNLRAEDTGTYFCAKASDSPSCRYGSRSGWSCPGWNYGGRIDAWGHGTEVIVSS VL: not shown | – | – | binds | binds
